These are literature values, as cited in publication PMC5663392.

For orientation: Kd means the equilibrium constant for the complex coming apart.

The series deals with FANCL RING (Homo sapiens) (UniProt Q9NW38).
Chain of UniProt Q9NW38 (Q9NW38 304-366): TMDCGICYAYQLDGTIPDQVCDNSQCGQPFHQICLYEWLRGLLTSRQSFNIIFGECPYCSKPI

Regarding Ube2T (from UniProt Q9NPD8), the Kd is 500 nM.
